These are literature values, as cited in publication PMC4962041.

The target of the data set is ubiquitin (UniProt P0CG48).

Sequence of yDdi1 UBL (P40087 1-80): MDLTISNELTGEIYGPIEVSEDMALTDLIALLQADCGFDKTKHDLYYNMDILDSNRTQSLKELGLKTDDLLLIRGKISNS

For the substance yDdi1 UBL (from UniProt P40087), the Kd was 45 µM.

For orientation: Kd means the equilibrium constant for the complex coming apart.
